Like-named read-outs stand apart in the source and are kept apart here. One block for each binder: values may come before it.
Assays:
P6-AA-12HAA-Y = target: T1, P6-AA-12HAA-Y; test: two-hybrid library CCmax;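 further: natural log of median RNA to DNA barcode read ratio; higher means stronger binding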
T1 chain: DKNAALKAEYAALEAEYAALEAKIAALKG

P6-AA-12HAA-V = target: T2, P6-AA-12HAA-V; test: two-hybrid library CCmax; details: mean of both orientations;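 further: natural log of median RNA to DNA barcode read ratio; higher means stronger binding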
T2 chain: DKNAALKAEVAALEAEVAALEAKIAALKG

P6-AA-12HAA-S = target: T3, P6-AA-12HAA-S; test: two-hybrid library CCmax; details: mean of both orientations;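 further: natural log of median RNA to DNA barcode read ratio; higher means stronger binding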
T3 chain: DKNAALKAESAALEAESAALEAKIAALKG

P6-AA-12HAA-L = target: T4, P6-AA-12HAA-L; test: two-hybrid library CCmax; details: mean of both orientations;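 further: natural log of median RNA to DNA barcode read ratio; higher means stronger binding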
T4 chain: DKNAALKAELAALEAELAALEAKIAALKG

P6-AA-12HAA-D = target: T5, P6-AA-12HAA-D; test: two-hybrid library CCmax; details: mean of both orientations
T5 chain: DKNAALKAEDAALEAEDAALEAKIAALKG

P6-AA-12HAA-H = target: T6, P6-AA-12HAA-H; test: two-hybrid library CCmax; details: mean of both orientations
T6 chain: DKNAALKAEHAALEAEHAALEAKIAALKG

P6-AA-12HAA-E = target: T7, P6-AA-12HAA-E; test: two-hybrid library CCmax; details: mean of both orientations
T7 chain: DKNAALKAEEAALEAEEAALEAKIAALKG

P6-AA-12HAA-T = target: T8, P6-AA-12HAA-T; test: two-hybrid library CCmax; details: mean of both orientations
T8 chain: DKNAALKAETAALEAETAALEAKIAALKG

P6-AA-12HAA-R = target: T9, P6-AA-12HAA-R; test: two-hybrid library CCmax; details: mean of both orientations
T9 chain: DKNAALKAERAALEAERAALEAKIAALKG

P6-AA-12HAA-K = target: T10, P6-AA-12HAA-K; test: two-hybrid library CCmax
T10 chain: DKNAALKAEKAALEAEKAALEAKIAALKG

P6-AA-1HAA-N = target: T11, P6-AA-1HAA-N; test: two-hybrid library CCmax; details: mean of both orientations
T11 chain: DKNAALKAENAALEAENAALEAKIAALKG

4H56-bN = target: T12, 4H56-bN; test: two-hybrid library CCNG1
T12 chain: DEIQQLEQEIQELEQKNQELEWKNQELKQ

4H3041-bN = target: T13, 4H3041-bN; test: two-hybrid library CCNG1
T13 chain: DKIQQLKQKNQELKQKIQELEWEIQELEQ

4H2931-bN = target: T14, 4H2931-bN; test: two-hybrid library CCNG1
T14 chain: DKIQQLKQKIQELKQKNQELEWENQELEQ

4H3297-bN = target: T15, 4H3297-bN; test: two-hybrid library CCNG1
T15 chain: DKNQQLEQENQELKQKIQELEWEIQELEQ

4H3381-bN = target: T16, 4H3381-bN; test: two-hybrid library CCNG1
T16 chain: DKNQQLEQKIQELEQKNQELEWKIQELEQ

4H3364-bN = target: T17, 4H3364-bN; test: two-hybrid library CCNG1
T17 chain: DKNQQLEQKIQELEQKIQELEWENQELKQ

4H349-bN = target: T18, 4H349-bN; test: two-hybrid library CCNG1
T18 chain: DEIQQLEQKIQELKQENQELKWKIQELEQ

4H730-bN = target: T19, 4H730-bN; test: two-hybrid library CCNG1
T19 chain: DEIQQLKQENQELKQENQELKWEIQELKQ

4H932-bN = target: T20, 4H932-bN; test: two-hybrid library CCNG1
T20 chain: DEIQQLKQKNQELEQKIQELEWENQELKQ

4H796-bN = target: T21, 4H796-bN; test: two-hybrid library CCNG1
T21 chain: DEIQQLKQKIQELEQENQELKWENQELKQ

4H949-bN = target: T22, 4H949-bN; test: two-hybrid library CCNG1
T22 chain: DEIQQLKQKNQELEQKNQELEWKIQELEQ

B2: 4H2931-bN (peptide)
chain: DKIQQLKQKIQELKQKNQELEWENQELEQ
interaction score (4H56-bN): 0.0366 | interaction score (4H3041-bN): -0.593 | interaction score (4H2931-bN): -0.656 | interaction score (4H3297-bN): -0.835 | interaction score (4H3381-bN): -1.1 | interaction score (4H3364-bN): -0.721 | interaction score (4H349-bN): -1.08 | interaction score (4H730-bN): -1.27 | interaction score (4H932-bN): -0.619 | interaction score (4H796-bN): -1.66 | interaction score (4H949-bN): -0.75

B3: P5-AA-12HAA-A (peptide)
chain: DENAALEAKAAALKAKAAALKAEIAALEG
interaction score (P6-AA-12HAA-Y; mean of both orientations): -0.289 | interaction score (P6-AA-12HAA-V): 1.95 | interaction score (P6-AA-12HAA-S): -1.71 | interaction score (P6-AA-12HAA-L): 1.96 | interaction score (P6-AA-12HAA-D): -1.63 | interaction score (P6-AA-12HAA-H): -1.86 | interaction score (P6-AA-12HAA-E): -1.81 | interaction score (P6-AA-12HAA-T): -0.646 | interaction score (P6-AA-12HAA-R): -2.54 | interaction score (P6-AA-12HAA-K): -1.98 | interaction score (P6-AA-1HAA-N): -1.39

B6: P5-AA-12HAA-D (peptide)
chain: DENAALEAKDAALKAKDAALKAEIAALEG
interaction score (P6-AA-12HAA-Y): -1.95 | interaction score (P6-AA-12HAA-V): -1.32 | interaction score (P6-AA-12HAA-S): -1.67 | interaction score (P6-AA-12HAA-L): -1.56 | interaction score (P6-AA-12HAA-D): -1.47 | interaction score (P6-AA-12HAA-H): -1.57 | interaction score (P6-AA-12HAA-E): -1.97 | interaction score (P6-AA-12HAA-T): -1.41 | interaction score (P6-AA-12HAA-R): -1.55 | interaction score (P6-AA-12HAA-K; mean of both orientations): -1.61 | interaction score (P6-AA-1HAA-N): -1.68

The remaining lines, values ahead:

interaction score (P6-AA-12HAA-Y): 2.26 | interaction score (P6-AA-12HAA-V): 2.39 | interaction score (P6-AA-12HAA-S): -0.666 | interaction score (P6-AA-12HAA-L): 1.74 | interaction score (P6-AA-12HAA-D): -1.57 | interaction score (P6-AA-12HAA-H): -0.352 | interaction score (P6-AA-12HAA-E): 0.451 | interaction score (P6-AA-12HAA-T): 1.66 | interaction score (P6-AA-12HAA-R): -0.243 | interaction score (P6-AA-12HAA-K; mean of both orientations): 0.645 | interaction score (P6-AA-1HAA-N): -0.665
B1: P5-AA-12HAA-L (peptide)
chain: DENAALEAKLAALKAKLAALKAEIAALEG

interaction score (P6-AA-12HAA-Y; mean of both orientations): -0.94 | interaction score (P6-AA-12HAA-V): 1.55 | interaction score (P6-AA-12HAA-S): -1.65 | interaction score (P6-AA-12HAA-L): 0.323 | interaction score (P6-AA-12HAA-D): -1.65 | interaction score (P6-AA-12HAA-H): -1.82 | interaction score (P6-AA-12HAA-E): -1.88 | interaction score (P6-AA-12HAA-T): -1.48 | interaction score (P6-AA-12HAA-R): -1.81 | interaction score (P6-AA-12HAA-K; mean of both orientations): -1.73 | interaction score (P6-AA-1HAA-N): -1.02
B4: P5-AA-12HAA-S (peptide)
chain: DENAALEAKSAALKAKSAALKAEIAALEG

interaction score (P6-AA-12HAA-Y; mean of both orientations): 0.46 | interaction score (P6-AA-12HAA-V): 1.5 | interaction score (P6-AA-12HAA-S): -1.61 | interaction score (P6-AA-12HAA-L): 1.25 | interaction score (P6-AA-12HAA-D): -2.09 | interaction score (P6-AA-12HAA-H): -1.12 | interaction score (P6-AA-12HAA-E): -1.36 | interaction score (P6-AA-12HAA-T): -1.23 | interaction score (P6-AA-12HAA-R): -1.74 | interaction score (P6-AA-12HAA-K; mean of both orientations): -1.33 | interaction score (P6-AA-1HAA-N): -1.49
B5: P5-AA-12HAA-T (peptide)
chain: DENAALEAKTAALKAKTAALKAEIAALEG
